Measured values: the nanobody polyreactivity screen of Harvey et al. (2022)

test: yeast display, Sf9 membrane polyspecificity reagent, FACS + sequencing; frameworks hold sequencing errors
Summary of the method: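 Nanobodies from a synthetic yeast display library (Saccharomyces cerevisiae BJ5465), induced 36–48 hours with galactose, were stained 1 hour at 4 °C with 10% biotinylated, detergent-solubilized Sf9 membrane reagent, enriched on streptavidin microbeads, then FACS-sorted. Anti-HA (expression) and streptavidin (reagent binding) fluorescence set low and high (top ~1%) gates. Polyreactivity labels come from the gate of origin. Genes were colony-PCR amplified, MiSeq 2 × 250 sequenced and filtered by CDR length.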

For “QVQLVESGGGLVQAGGSLRLSCAASGFIDYDNAMGWYRQAPGKERELVAAITSGGSTYYADSVKGRFTISRDNAKNTVYLQMNSLKPEDTAVYYCARESGYRAYEIQFYYWGQGTQVTVSS”, which “polyreactivity (PSR sort gate)” value is on record?
Its value is “high polyreactivity”.

Which “polyreactivity (PSR sort gate)” value does the source give for “QDQLVESAGGLVQAGGSLRLSCAASARIFRYNAIGCYRQGPGKERVLVASITSAGSTNYADSVKGRFTISRDNAKNTVYLQMNSLKPEDTAVYYCNKRRAYGYYLFDYWGLGTQVTVSS” here?
The value was “high polyreactivity”.

Which “polyreactivity (PSR sort gate)” value does the source give for “QVQLVESGGGLVQAGGSLGLSCAASGSIFSSNVMGWYRQAPGKERELVAAISGGGGSTYYADSVKGRFTISRDNAKNTGYLQMNSLKPEDTAVYYCNRVTTWARTPKAYGYWGQGTQVTVSS” here?
Its value is “high polyreactivity”.

Which “polyreactivity (PSR sort gate)” value does the source give for “QVQLVESGGGLVQAGGSLRLSCAASGRTLYGNTMGWYRQAPGKERELVAAITNRGGSTTYADSVKGRFTISRDNAKNTVYLQMNSLKPEDTAVYYCNKDVTPLHYDSWGQGTQVTVSS” here?
Its value is “high polyreactivity”.

With “QVQLVESGGGLVQAGGSLRLSCAASGRILRFYAMGWYRQAPGKERELVATISRSGGSTYYADSVKGRFTISRDNAKNTVYLQMNSLKPEDTAVYYSNAKFKGVSYKMDYWGQGTQVTVSS” as the sequence, how does the “polyreactivity (PSR sort gate)” value read?
Its value is “high polyreactivity”.

Which “polyreactivity (PSR sort gate)” value does the source give for “QVQLVESGGGLVQAGGSLRLSCAASGFTFSKYAMGWYRQAPGKEREFVAAISSRGGRTYYADSVKGRFTISRDNAKNTVYLQMNSLKPEDTAVYYCAVDVHLVTEYDYWGQGTQVTVSS” here?
The value was “high polyreactivity”.

For “QVQLVESGGGLVQAGGSLRLSCAASGRTFVPYAMGWYRQAPGKERELVASITWRGGRTYYADSVKGRFTISRDNAKNTVYLQMNSLKPEDTAVYYCAAVGGYASYFHLYYYWGQGTQVTVSS”, which “polyreactivity (PSR sort gate)” value is on record?
The value was “high polyreactivity”.

For “QVQLVESGGGLVQAGGSLRLSCAASGSTFYDNAMGWYRQAPGKERELVAAINWSSDTTYYADSVKGRFTISRDNAKNTVYLQMNSLKPEDTAVYYCATDSAYRGYDYWGQGTQVTVSS”, which “polyreactivity (PSR sort gate)” value is on record?
The value was “low polyreactivity”.

With “QVQLVESGGGLVQAGGSHRLSCAASGRTFGGNVMGWYRPAHWKERELVAAISSTGDRTYYADSVKGRFTISRDNAKNTVYLQMYSLKPEDTAVYYCAARPAYRSSYYWGQGTQVTVSS” as the sequence, how does the “polyreactivity (PSR sort gate)” value read?
The value was “high polyreactivity”.

Which “polyreactivity (PSR sort gate)” value does the source give for “QVQLVESGVGLVQAGGSLRLSCAASGRTFTPYAMGWYRQAPGKEREFVAAISIVGRTKYADSVKGRFTISRDNAKNTVYLQMNSLKPEDTAVYYCNAQDSRDRKFYWGYTRGHWGLGTQVTVSS” here?
Its value is “low polyreactivity”.

For “QVQLVESGGGLVQAGGSLRLSCAASGSTFGRNTMGWYRKAPGKERELVASITRSSTSTNYADSVKGRFTISRDNAKNTVYLQMNSLKPEDTAVYYCAARALRTDRSPVGSHEYWGQGTQVTVSS”, which “polyreactivity (PSR sort gate)” value is on record?
The value was “low polyreactivity”.

With “QVQLVESGGGLVQAGGSLRLSCAASGRIFIHYAMGGYRHAPGKERELVAAISASGGTTNYADSVKGRFTISRDNAKNTVYLQMNSLKPEDTAVYYCNKDYPQNPLPASSYYLGRFDYWGQGSQVTVSS” as the sequence, how does the “polyreactivity (PSR sort gate)” value read?
Its value is “high polyreactivity”.

With “QVQLVESGGGLVQAGGSLRLSCAASGSTFLTNAMGWYRQAPGKERELVAAIRTSGGSTYYADSVKGRFTSSRDNAKKTVYVLMNSLKPEDTAVYYCAASYRRRRFSEYYYWGQGTQVTVAS” as the sequence, how does the “polyreactivity (PSR sort gate)” value read?
The value was “high polyreactivity”.

For “QVQLVESGGGLVQAGGSLRLSCAASGRTFHSNDMGWYRQAPGKERELVAAISSSDGITYYADSVKGRFTISRDNAKNTVYLQMNSLKQEDNAVYYCAARRYRSGYYSFYFWGQGTQVTVSS”, which “polyreactivity (PSR sort gate)” value is on record?
The value was “high polyreactivity”.

With “QVQLQESGGGLVQAGGSLRLSCAASGYNSHADEMGWYRQAPGKEHELVASISNGGSTNYADSVKGRFTISRDNANNTVYLQMNSLKSEDTAVYYCADWTGEVDIHYYWGQGTQVTVSS” as the sequence, how does the “polyreactivity (PSR sort gate)” value read?
The value was “low polyreactivity”.

With “QGQLVESGGRLVQAGGSLRVSCAASGLTFNYYAMRWYRPAPGKERELVASISRSGGSTYYADSVKGRFTISRDNAKNTVYLQMNSLKPVDTAVYYCAAYRRRTYAVNKEGGYWGQGTQVTVSS” as the sequence, how does the “polyreactivity (PSR sort gate)” value read?
Its value is “high polyreactivity”.

Which “polyreactivity (PSR sort gate)” value does the source give for “QVQLVESGGGLVQAGGSLRLSCAASGRTFVPYAMGWYRQAPGKERELVASITRSGGRTYYADSVKGRFTISRDNAKNTVYLQMNSLKPEDTAVYYCAVDWSVYYRTYDYWGQGTQVTVSS” here?
The value was “high polyreactivity”.
